Target: T1, Haptoglobin (Homo sapiens, UniProt P00738)
T1 chain: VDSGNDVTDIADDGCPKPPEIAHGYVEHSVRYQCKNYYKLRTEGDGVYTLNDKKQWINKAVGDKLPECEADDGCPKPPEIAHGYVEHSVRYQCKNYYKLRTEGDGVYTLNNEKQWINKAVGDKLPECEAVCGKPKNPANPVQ
Assay: SPR

Kd: 0.823 nM
B1: Hemoglobin (protein)
chain 1: not shown
chain 2: not shown
modifications: dextran (10 kDa)-linker at beta Cys93
